Positions count from the first letter of the chain named.
T1: Cynomolgus CD3εδ Fc heterodimer (Cy CD3ε Fc / CD3δ Fc-HIS) (cynomolgus, UniProt Q95LI8 22-100)
T1 chain 1: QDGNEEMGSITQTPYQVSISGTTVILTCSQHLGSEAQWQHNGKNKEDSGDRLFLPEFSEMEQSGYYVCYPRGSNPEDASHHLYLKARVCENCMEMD
T1 chain 2: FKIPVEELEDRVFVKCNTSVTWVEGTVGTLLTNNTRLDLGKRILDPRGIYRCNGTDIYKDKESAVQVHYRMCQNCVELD

B1: SAD10319_P06_G09 (ADI-57431) (antibody, V domains shown)
VH: QVQLVQSGAEVKKPGASVKVSCKASGYTFESYDMHWVRQAPGPRLEWMGWIDAGTGATTYSQKFQGRVTITRDTSASTAYMELSSLRSEDTAVYYCARDAYHHYFYDVWGQGTLVTVSS
VL: DIVMTQSPDSLAVSLGERATINCKSSQSLLNARTGKNYLAWYQQKPGQPPKLLIYWASTRESGVPDRFSGSGSGTDFTLTISSLQAEDVAVYYCKQSYSRRTFGGGTKVEIK
notes: IgG; also called Ab161
B2: LAD9956_P01_C03 (ADI-57440) (antibody, V domains shown)
VH: QVQLVQSGAEVKKPGASVKVSCKASGFNIKDYYMHWVRQAPGQRLEWMGWIDLENANTIYDAKFQGRVTITRDTSASTAYMELSSLRSEDTAVYYCARDAYGRYFYDVWGQGTLVTVSS
VL: B1 VL with R33H, G35H
notes: IgG; also called Ab171
B3: SAD10319_P06_H10 (ADI-57435) (antibody, V domains shown)
VH: B1 VH with A57N, T59K, R72A, T74E, A76T, A100H, H102G
VL: B1 VL
notes: IgG; also called Ab165
B4: SAD10319_P06_H07 (ADI-57433) (antibody, V domains shown)
VH: QVQLVQSGAEVKKPGASVKVSCKASGYTFVSYNMHWVRQAPGQRLEWMGSINAGDANTKYSQKFQGRVTITRDTSASTAYMELSSLRSEDTAVYYCARDHYGHYFYDVWGQGTLVTVSS
VL: B1 VL
notes: IgG; also called Ab163
B5: LAD9966_P01_A08 (ADI-57445) (antibody, V domains shown)
VH: B2 VH
VL: B1 VL with Y38H
notes: IgG; also called Ab176
B6: LAD9963_P01_E06 (ADI-57443) (antibody, V domains shown)
VH: B2 VH
VL: B1 VL with R33H
B7: SAD10319_P06_H08 (ADI-57434) (antibody, V domains shown)
VH: B1 VH with P43Q, R44T
VL: B1 VL
notes: IgG; also called Ab164
B8: SAD10319_P06_H11 (ADI-57436) (antibody, V domains shown)
VH: B1 VH with E30T, S31D, P43H, D52N, T55D, G56A, T59V, H102G, V108H
VL: B1 VL
notes: IgG; also called Ab166
B9: SAD10319_P06_G11 (ADI-57432) (antibody, V domains shown)
VH: B4 VH with V30T, S31D, N33D, S50W, N57A, K59V, H100A, V108H
VL: B1 VL
notes: IgG; also called Ab162
B10: LAD5224_P03_A01 (ADI-26906) (antibody, V domains shown)
VH: B2 VH
VL: B1 VL
notes: IgG; also called Ab1; parent clone
B11: LAD9965_P01_H07 (ADI-48666) (antibody, V domains shown)
VH: B2 VH
VL: B1 VL with K36H
notes: IgG; also called Ab177
B12: SAD10318_P01_A02 (ADI-48581) (antibody, V domains shown)
VH: B2 VH with G102H, R103H
VL: B1 VL with G35H, Y38H, S99H, R100H
notes: IgG; also called Ab237
B13: SAD10318_P01_G03 (ADI-48590) (antibody, V domains shown)
VH: B2 VH with R98H, R103H
VL: B1 VL with R33H, K36H, S99H, R100H
notes: IgG; also called Ab91
B14: SAD10318_P01_F02 (ADI-48585) (antibody, V domains shown)
VH: B2 VH with Y101H, R103H
VL: B1 VL with R33H, Y38H, Y98H, R100H
notes: IgG; also called Ab14
B15: SAD10318_P01_A03 (ADI-48587) (antibody, V domains shown)
VH: B2 VH with A100H, G102H
VL: B1 VL with K36H, Y98H, R100H
notes: IgG; also called Ab36
B16: SAD10318_P01_G02 (ADI-48586) (antibody, V domains shown)
VH: B2 VH with G102H, R103H
VL: B1 VL with Y38H, R100H
notes: IgG; also called Ab25
B17: SAD10318_P01_H03 (ADI-48591) (antibody, V domains shown)
VH: B2 VH with R98H, R103H
VL: B1 VL with K36H, S71R, S99H, R100H
notes: IgG; also called Ab102
B18: SAD10318_P01_D03 (ADI-48588) (antibody, V domains shown)
VH: B2 VH with A100H, R103H
VL: B1 VL with R33H, K36H, Y98H, R100H
notes: IgG; also called Ab58
B19: SAD10318_P01_F03 (ADI-48589) (antibody, V domains shown)
VH: B2 VH with Y101H, V108H
VL: B1 VL with R33H, K36H, R100H
notes: IgG; also called Ab80
B20: SAD10318_P01_H01 (ADI-48580) (antibody, V domains shown)
VH: B2 VH with Y101H, G102H
VL: B1 VL with R33H, Y38H, S99H, R100H
notes: IgG; also called Ab226
B21: SAD10318_P01_D02 (ADI-48584) (antibody, V domains shown)
VH: B2 VH with Y101H, G102H
VL: B1 VL with Y38H, Y98H, R100H
notes: IgG; also called Ab3
B22: SAD10318_P01_B01 (ADI-48574) (antibody, V domains shown)
VH: B2 VH with F105H, V108H
VL: B1 VL with R33H, K36H
notes: IgG; also called Ab2
B23: SAD10318_P01_F01 (ADI-48578) (antibody, V domains shown)
VH: B2 VH with R103H, V108H
VL: B1 VL with R33H, Y38H, S99H, R100H
notes: IgG; also called Ab204
B24: SAD10318_P01_C01 (ADI-48575) (antibody, V domains shown)
VH: B2 VH with G102H, F105H
VL: B1 VL with R33H, G35H, Y98H, R100H
notes: IgG; also called Ab113
B25: SAD10318_P01_B02 (ADI-48582) (antibody, V domains shown)
VH: B2 VH with A100H, G102H
VL: B1 VL with K36H, Y38H, Y98H, R100H
notes: IgG; also called Ab248
B26: SAD10318_P01_E01 (ADI-48577) (antibody, V domains shown)
VH: B2 VH with Y101H, G102H
VL: B1 VL with R33H, T34E, Y98H, R100H
notes: IgG; also called Ab193
B27: SAD10318_P01_G01 (ADI-48579) (antibody, V domains shown)
VH: B2 VH with Y101H, R103H
VL: B1 VL with N31H, R33H, Y98H, R100H
notes: IgG; also called Ab215
B28: SAD10318_P01_D01 (ADI-48576) (antibody, V domains shown)
VH: B2 VH with G102H, V108H
VL: B1 VL with R33H, Y38H, Y98H, R100H
notes: IgG; also called Ab182

Target: T1, Cynomolgus CD3εδ Fc heterodimer (Cy …)
Assay: BLI (Octet), IgG on AHC sensor, pH 6.0

| koff [s⁻¹] | Binder |
| --- | --- |
| 0.00258 | B1 |
| 0.000913 | B2 |
| 0.0267 | B3 |
| 0.00901 | B4 |
| 0.0035 | B5 |
| 0.000866 | B6 |
| 0.0231 | B7 |
| 0.0285 | B8 |
| 0.00924 | B9 |

Target: T2, human CD3 on CD3+ Jurkat cells (human, UniProt P07766 23-207)
T2 construct: whole, on cells; Native CD3 complex on cells; the other CD3 chains are not specified for this assay; also called Human CD3+ Jurkat
Assay: flow cytometry, 100 nM IgG on CD3+ Jurkat cells, pH 6.0
Protocol: (§1) Specificity of the anti-CD3 antibodies for human CD3+ Jurkat cells compared to CHO-S cells at pH 6.0 and 7.4 was determined using a FACS cell binding assay. Briefly, CD3+ human Jurkat cells and CHO-S cells were thawed and washed with cold PBSF buffer, pH 7.4 (PBS+0.1% BSA, pH 7.4). About 200,000 cells were aliquoted per well of a 96-well plate and pelleted by centrifugation (5 minutes at 500×g). The cells were washed with either PBSF pH 7.4 or PBSF pH 6.0 (PBS+0.1% BSA, pH 6.0), and then resuspended in 100 ul in either PBSF pH 7.4 or PBSF pH 6.0 with IgG antibody produced in yeast (100 nM). The mixture (cells+antibody) was incubated for 20 minutes on ice, then washed twice with either PBSF pH 7.4 or PBSF pH 6.0. Cells were resuspended in 50 ul of propidium iodide (1:500 dilution) and anti-human IgG-RPE (1:100 dilution) prepared in either PBSF pH 7.4 or PBSF pH 6.0, then incubated for 20 minutes on ice in the dark before cells were washed twice with either PBSF pH 7.4 or PBSF pH 6.0. Binding was analyzed on FACS Canto II.
(§2) Cell binding assays. CD3+ human Jurkat cells (ATCC) and CHO-S cells (Invitrogen/ThermoFisher) were thawed and washed with cold PBSF buffer, pH 7.4 (PBS+0.1% BSA, pH 7.4). About 200,000 cells were aliquoted per well of a 96-well plate (FACS Assay Plate VWR BD 353263) and pelleted by centrifugation (5 minutes at 500×g). The cells were washed with either PBSF pH 7.4 or PBSF pH 6.0 (PBS+0.1% BSA, pH 6.0), and then resuspended in 100 ul in either PBSF pH 7.4 or PBSF pH 6.0 with IgG antibody (100 nM) produced in yeast as described above. The mixture (cells+antibody) was incubated for 20 minutes on ice, then washed twice with either PBSF pH 7.4 or PBSF pH 6.0. Cells were resuspended in 50 ul of propidium iodide (Roche; 1:500 dilution) and anti-human IgG-RPE (Southern Biotech; 1:100 dilution) prepared in either PBSF pH 7.4 or PBSF pH 6.0, then incubated for 20 minutes on ice in the dark before cells were washed twice with either PBSF pH 7.4 or PBSF pH 6.0. Binding was analyzed on FACS Canto II.

T2 sequence (P07766 23-207): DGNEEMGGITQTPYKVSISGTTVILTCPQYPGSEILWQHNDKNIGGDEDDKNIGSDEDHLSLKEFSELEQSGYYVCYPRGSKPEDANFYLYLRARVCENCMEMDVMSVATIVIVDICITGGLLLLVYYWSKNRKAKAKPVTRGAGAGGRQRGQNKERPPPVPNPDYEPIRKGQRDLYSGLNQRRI

| MFI pH 6.0 [MFI] | Binder |
| --- | --- |
| 6040 | B10 |
| 5700 | B11 |
| 1730 | B12 |
| 1950 | B13 |
| 381 | B14 |
| 5120 | B15 |
| 1090 | B16 |
| 4430 | B17 |
| 4940 | B18 |
| 5240 | B19 |
| 933 | B20 |
| 2180 | B21 |
| 3550 | B22 |
| 418 | B23 |
| 3110 | B24 |
| 326 | B25 |
| 5370 | B26 |
| 2070 | B27 |
| 849 | B28 |

Target: T2, human CD3 on CD3+ Jurkat cells
Assay: flow cytometry, 100 nM IgG on CD3+ Jurkat cells, pH 7.4
Protocol: as §1, §2

| MFI pH 7.4 [MFI] | Binder |
| --- | --- |
| 5270 | B10 |
| 4800 | B11 |
| 38 | B12 |
| 32 | B13 |
| 45 | B14 |
| 66 | B15 |
| 45 | B16 |
| 140 | B17 |
| 59 | B18 |
| 475 | B19 |
| 41 | B20 |
| 91 | B21 |
| 150 | B22 |
| 36 | B23 |
| 81 | B24 |
| 36 | B25 |
| 73 | B26 |
| 306 | B27 |
| 42 | B28 |

Target: T2, human CD3 on CD3+ Jurkat cells
Assay: flow cytometry on CD3+ Jurkat cells, ratio of MFI at pH 6.0 to pH 7.4
Protocol: as §1, §2

| MFI pH 6.0/MFI pH 7.4 | Binder |
| --- | --- |
| 1.1 | B10 |
| 1.2 | B11 |
| 45.5 | B12 |
| 60.3 | B13 |
| 8.5 | B14 |
| 77.1 | B15 |
| 24.3 | B16 |
| 31.6 | B17 |
| 83.3 | B18 |
| 11 | B19 |
| 22.5 | B20 |
| 23.9 | B21 |
| 23.7 | B22 |
| 11.7 | B23 |
| 38.4 | B24 |
| 9 | B25 |
| 73.1 | B26 |
| 6.8 | B27 |
| 20.1 | B28 |

— US20220380463A1 (Adimab, published 2022)
